The test addresses T1, domain V of human β2GPI (human, UniProt P02749 263-345).
T1 sequence (looked up): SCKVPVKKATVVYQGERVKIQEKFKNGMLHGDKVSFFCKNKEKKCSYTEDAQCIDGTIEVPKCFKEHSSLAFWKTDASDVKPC
Put plainly: ITC. For orientation: ITC needs no label: the signal is the heat of the interaction.

One molecule from article PMC4351136 (The FEBS journal, 2015) can be followed below.

B1: Asn36/Asp mutant of mouse A1 (domain or fragment)
chain: not shown
What is called Kd is the constant that tells how readily two partners part at equilibrium. Read a high Kd as a looser complex. Usually stoichiometry N stands for the number of molecules, sites or subunits per partner or assembly. In the case of B1, the Kd turned out to be 14 µM, the dH is -4.3 ± 0.2 kcal/mol and the “stoichiometry N” value amounted to 1.04 ± 0.03.
